Experimental data published in US20220056517A1 (OXFORD NANOPORE TECHNOLOGIES, published 2022).
Changes are numbered by the printed parent chain. Names may count otherwise.

Columns and labels:
[1] = molecular target: T1, CsgG Y51T/N55V/F56Q/N91R/K94Q/R97W-del(V105-I107) pore containing the C terminal strep tag (E. coli, UniProt P0AEA2 16-277); test: panel B; in vitro reconstitution; DNA translocation current recording
T1 construct: not shown: C-terminal Strep tag
T1 chain: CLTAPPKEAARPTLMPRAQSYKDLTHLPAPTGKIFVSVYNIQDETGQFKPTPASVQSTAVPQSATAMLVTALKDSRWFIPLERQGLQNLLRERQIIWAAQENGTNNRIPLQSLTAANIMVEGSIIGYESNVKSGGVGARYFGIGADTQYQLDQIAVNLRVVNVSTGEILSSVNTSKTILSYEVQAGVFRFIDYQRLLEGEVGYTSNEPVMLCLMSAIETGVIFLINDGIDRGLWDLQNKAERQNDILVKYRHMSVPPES

[2] = molecular target: T2, CsgG Y51S/N55V/F56Q/N91R/K94Q/R97W-del(V105-I107) pore containing the C terminal strep tag (E. coli, UniProt P0AEA2 16-277); test: panel F; in vitro reconstitution; DNA translocation current recording
T2 construct: also called Y515/N55V/F56Q/N91R/K94Q/R97W-del(V105-I107) (sic); not shown: C-terminal Strep tag
T2 chain: T1 chain with T51S

[3] = molecular target: T3, CsgG Y51A/N55I/F56Q/N91R/K94Q/R97W-del(V105-I107) pore containing the C terminal strep tag (E. coli, UniProt P0AEA2 16-277); test: panel C; in vitro reconstitution; DNA translocation current recording
T3 construct: also called Y51A/N551/F56Q/N91R/K94Q/R97W-del(V105-I107) (sic); not shown: C-terminal Strep tag
T3 chain: T1 chain with T51A, V55I

[4] = molecular target: T4, CsgG Y51A/F56A/N91R/K94Q/R97W-del(V105-I107) pore containing the C terminal strep tag (E. coli, UniProt P0AEA2 16-277); test: panel D; in vitro reconstitution; DNA translocation current recording
T4 construct: not shown: C-terminal Strep tag
T4 chain: T1 chain with T51A, V55N, Q56A

[5] = molecular target: T5, CsgG Y51A/N55V/F56Q/N91R/K94Q/R97W-del(V105-I107) pore containing the C terminal strep tag (E. coli, UniProt P0AEA2 16-277); test: in vitro reconstitution; DNA translocation current recording
T5 construct: Oligomeric CsgG pore; also called Y51A/F56Q/N55V/N91R/K94Q/R97W-del(V105-I107); not shown: C-terminal Strep tag
T5 chain: T1 chain with T51A

[6] = molecular target: T6, CsgG Y51S/N55A/F56Q/N91R/K94Q/R97W-del(V105-I107) pore (E. coli, UniProt P0AEA2 16-277); test: pore 7; in vitro reconstitution; DNA translocation, signal:noise
T6 chain: T1 chain with T51S, V55A

[7] = molecular target: T4, CsgG …; test: pore 4; in vitro reconstitution; DNA translocation, signal:noise
[8] = molecular target: T7, CsgG Y51A/F56Q/N91R/K94Q/R97W-del(V105-I107) pore containing the C terminal strep tag (E. coli, UniProt P0AEA2 16-277); test: pore 1; in vitro reconstitution; DNA translocation, signal:noise
T7 construct: Oligomeric CsgG pore; not shown: C-terminal Strep tag
T7 chain: T1 chain with T51A, V55N

[9] = molecular target: T1, CsgG …; test: pore 9; in vitro reconstitution; DNA translocation, signal:noise
[10] = molecular target: T8, CsgG Y51A/F56V/N91R/K94Q/R97W-del(V105-I107) pore (E. coli, UniProt P0AEA2 16-277); test: pore 6; in vitro reconstitution; DNA translocation, signal:noise
T8 chain: T1 chain with T51A, V55N, Q56V

[11] = molecular target: T2, CsgG …; test: pore 8; in vitro reconstitution; DNA translocation, signal:noise
[12] = molecular target: T3, CsgG …; test: pore 2; in vitro reconstitution; DNA translocation, signal:noise
[13] = molecular target: T9, CsgG Y51A/F56Q/N91R/K94Q/R97W/R192D-del(V105-I107) pore (E. coli, UniProt P0AEA2 16-277); test: last panel; reader head discrimination from DNA translocation
T9 chain: T1 chain with T51A, V55N, R189D

Measured: binding result

B1: CsgF-N17S-(1-35) peptide (peptide)
peptide: GTMTFQFRNPNFGGNPSNGAFLLNSAQAQNSYKDP
notes: also called CsgF-N175-(1-35) (sic)
binds: [1] | [2] | [3] | [4] | [5]

B2: CsgF-(1-35) synthetic peptide (peptide)
peptide: B1 peptide with S17N
notes: also called CsgF (1-35) peptide
binds: [6] | [7] | [8] | [9] | [10] | [11] | [12]

B3: CsgF-N17S-(1-45) peptide (peptide)
peptide: GTMTFQFRNPNFGGNPSNGAFLLNSAQAQNSYKDPSYNDDFGIET
binds: [13]
